Laboratory results: patent US20250320286A1

Target: 4U-3pE-beta-Amyloid
Test: SPR; 4U-3pE-beta-Amyloid 0.6 to 4.5 nM

Kd: 37.9 pM
koff: 0.000156 s⁻¹
kon: 4.11e+06 M⁻¹ s⁻¹
Substance: Control mAb (antibody)
